Data published in patent publication US20240076389A1.

B1: hFC-F107-10G1 (antibody, human IgG1, kappa, V domains shown)
VH: EVNLVESGGGVVKPGASLKLSCEASGFTFSNYGMSWVRQTSDKRLEWVASISGGGGRTYYLDNVKGRFIISRENAKNTLYLQMSSLKSEDTALFYCARGARASYFAMDYWGQGSSVTVSS
VL: VIVMTQSHKFMSTSVGDRVSITCKASQDVTTAVAWYQQKPGQSPKLLIYWASTRHTGVPDRFTGSGSGTDYSLTISNVQTEDLAFYYCQQHFTTPLTFGAGTKLELKR
B2: NRC-sdAb001-Fc (VHH-human IgG1 Fc fusion) (Fc fusion, not shown: a dimerising Fc or GST)
chain: QVKLEESGGGLVQAGGSLRLSCTASASISSFDIMGWYRQAPGKQRELVAAITTLDIANYRDSVKGRFTISRDNAKNTVYLQMDSLKPEDTARYHCAAFQSDQNYWGQGTQVTVSS
B3: NRC-sdAb002-Fc (VHH-human IgG1 Fc fusion) (Fc fusion, not shown: a dimerising Fc or GST)
chain: QVQLVDSGGGLVQAGGSLRLSCATSTRTVSSAVMAWFRQAPEKVRDFVGFITNSGNILYDDSVKGRFTISRDNAQNTVYLQMNSLKPEDTAVYYCAAKWSFSSGYGDLRRAAMYDYWGQGTQVTVSS
B4: NRC-sdAb003-Fc (VHH-human IgG1 Fc fusion) (Fc fusion, not shown: a dimerising Fc or GST)
chain: QVQLVESGGGLVQAGGSLRLSCAASGVTLDYTAIGWFRQAPGKERELVAAITSGGNTDYAESAKGRFRISRDNSKNTIYLQMNSLKPEDTGVYYCAARRGGARGEYDYWDQGTQVTVSS
B5: hFc-sdAb008-DM1 (Fc fusion, not shown: a dimerising Fc or GST)
chain: QVKLEESGGGLVQAGGSLRLSCAASGSSGMINTMGWYRQAPGKQRELVARRSTGGTTNYADSVKGRFTISRDDANNTVYLQMNSLKPEDTAVYYCAIIWRTSDLTGRFNTWGQGTQVTVSS
modifications: DM1 conjugate (SMCC linker); sites not given
B6: hFc-sdAb005-DM1 (Fc fusion, not shown: a dimerising Fc or GST)
chain: QVKLEESGGGLAQAGGSLRLSCAASGSISSINTIGWFRQAPGKQRELVAASDSGANRNYADSVKGRFTISRDNAKNTVYLQMNNLKPEDTAIYYCRAWGTGTISTMYWGQGTQVTVSS
modifications: DM1 conjugate (SMCC linker); sites not given
B7: hFc-sdAb006-DM1 (Fc fusion, not shown: a dimerising Fc or GST)
chain: QVKLEESGGGLVQAGASLRLSCVASESIFGFNTMGWYRQAPGNERELVASISNSKRTMYADSVKGRFTISRDNAKNTVNLQMNNLKPEDTAVYYCRAWGIITSATVYWGQGTQVTVSS
modifications: DM1 conjugate (SMCC linker); sites not given
B8: hFc-sdAb001-DM1 (Fc fusion, not shown: a dimerising Fc or GST)
chain: B2 chain
modifications: DM1 conjugate (SMCC linker); sites not given

Each binder was assayed against huAXL-ECD displayed on yeast (human) (UniProt P30530) (assay: yeast surface display ELISA, non-denatured yeast, goat anti-human F(ab')2-HRP).
Sequence of huAXL-ECD displayed on yeast (human) (P30530 26-449, form in doubt): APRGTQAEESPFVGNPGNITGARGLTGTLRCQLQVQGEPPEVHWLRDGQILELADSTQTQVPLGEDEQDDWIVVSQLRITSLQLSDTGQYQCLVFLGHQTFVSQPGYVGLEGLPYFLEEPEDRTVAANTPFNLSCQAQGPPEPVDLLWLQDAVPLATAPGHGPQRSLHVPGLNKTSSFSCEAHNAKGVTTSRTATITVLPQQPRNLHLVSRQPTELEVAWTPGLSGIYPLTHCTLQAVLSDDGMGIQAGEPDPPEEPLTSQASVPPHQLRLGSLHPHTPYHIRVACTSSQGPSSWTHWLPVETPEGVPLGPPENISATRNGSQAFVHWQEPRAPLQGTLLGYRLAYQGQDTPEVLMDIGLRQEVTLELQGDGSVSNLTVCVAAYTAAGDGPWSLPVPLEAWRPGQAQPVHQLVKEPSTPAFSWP
Binder B1 has a yeast ELISA signal normalized to myc expression level of 1.39.
B2 gave a yeast ELISA signal normalized to myc expression level of 1.03.
B3 was tested, and the yeast ELISA signal normalized to myc expression level was 0.882.
B4 was tested, and the yeast ELISA signal normalized to myc expression level was 0.659.

What follows are binders tested against human AXL expressed on the cell surface of tumor cell lines (human) (UniProt P30530) (assay: cell-based or functional assay).
Sequence of human AXL expressed on the cell surface of tumor cell lines (human) (P30530 26-894): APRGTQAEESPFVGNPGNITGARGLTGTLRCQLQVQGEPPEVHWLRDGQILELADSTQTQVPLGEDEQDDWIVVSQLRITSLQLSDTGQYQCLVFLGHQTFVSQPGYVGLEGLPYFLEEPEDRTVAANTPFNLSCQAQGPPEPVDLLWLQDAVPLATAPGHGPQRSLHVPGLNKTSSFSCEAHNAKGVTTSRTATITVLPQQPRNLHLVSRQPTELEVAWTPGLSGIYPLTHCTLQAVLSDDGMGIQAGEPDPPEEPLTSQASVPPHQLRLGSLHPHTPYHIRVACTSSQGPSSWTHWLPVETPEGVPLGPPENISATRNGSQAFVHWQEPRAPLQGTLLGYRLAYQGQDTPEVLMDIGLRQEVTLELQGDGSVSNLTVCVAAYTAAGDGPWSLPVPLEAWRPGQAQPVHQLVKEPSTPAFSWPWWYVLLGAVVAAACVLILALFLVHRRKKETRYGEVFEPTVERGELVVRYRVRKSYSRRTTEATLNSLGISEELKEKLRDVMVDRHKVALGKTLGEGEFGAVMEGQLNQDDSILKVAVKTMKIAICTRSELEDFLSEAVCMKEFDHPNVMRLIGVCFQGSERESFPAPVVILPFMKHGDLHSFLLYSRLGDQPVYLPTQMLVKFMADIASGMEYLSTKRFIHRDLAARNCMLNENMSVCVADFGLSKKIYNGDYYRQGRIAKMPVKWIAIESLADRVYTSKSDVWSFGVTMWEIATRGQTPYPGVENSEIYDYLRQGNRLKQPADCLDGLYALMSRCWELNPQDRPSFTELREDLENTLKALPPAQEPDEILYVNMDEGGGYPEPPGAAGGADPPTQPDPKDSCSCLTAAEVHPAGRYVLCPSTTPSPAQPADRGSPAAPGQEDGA
B5 was tested, and the IC50 of growth inhibition (CellTiterGlo, 5 days) of NCI-H292 cells, -Gas6 was 0.034 nM and the IC50 of growth inhibition of NCI-H292 cells, +Gas6 (2 µg/mL) was 0.24 nM.
Work on B6 yielded an IC50 of growth inhibition (CellTiterGlo, 5 days) of NCI-H292 cells, -Gas6 of 6.66 nM and an IC50 of growth inhibition of NCI-H292 cells, +Gas6 (2 µg/mL) of 3.78 nM.
In the case of B7, the IC50 of growth inhibition (CellTiterGlo, 5 days) of NCI-H292 cells, -Gas6 is reported as 2.71 nM.
In the case of B8, the IC50 of growth inhibition (CellTiterGlo, 5 days) of NCI-H292 cells, -Gas6 is reported as 0.887 nM.
